# B1: 69348 anti-hTfR scFv (VH-VK) (scFv)
# scFv: QVQLVESGGGVVQPGRSLRLSCAASGFTFTTYGMHWVRQAPGKGLEWVAVIWYDGSNKYYGDSVKGRFTISRDNSKNTLYLQMNSLRVDDTAVYYCTRTHGYTRSSDGFDYWGQGTLVTVSSGGGGSGGGGSGGGGSDIQMTQSPSSLSASVGDRVTITCRASQSIRNVLGWFQQKPGKAPQRLIYAASSLQSGVPSRFSGSGSGTEFTLTISSLQPEDFATYYCLQHNFYPLTFGGGTKVEIK
# notes: also called 69348 scFv (VH - VK) Format
# Target: T1, human transferrin receptor extracellular domain with hexahistidine-myc-myc tag (REGN2431) (human, UniProt P02786 89-760)
# T1 construct: also called hTFR-mmh; hmm.hTfRC
# T1 sequence (P02786 other isoform, or with tags, fused parts or gaps): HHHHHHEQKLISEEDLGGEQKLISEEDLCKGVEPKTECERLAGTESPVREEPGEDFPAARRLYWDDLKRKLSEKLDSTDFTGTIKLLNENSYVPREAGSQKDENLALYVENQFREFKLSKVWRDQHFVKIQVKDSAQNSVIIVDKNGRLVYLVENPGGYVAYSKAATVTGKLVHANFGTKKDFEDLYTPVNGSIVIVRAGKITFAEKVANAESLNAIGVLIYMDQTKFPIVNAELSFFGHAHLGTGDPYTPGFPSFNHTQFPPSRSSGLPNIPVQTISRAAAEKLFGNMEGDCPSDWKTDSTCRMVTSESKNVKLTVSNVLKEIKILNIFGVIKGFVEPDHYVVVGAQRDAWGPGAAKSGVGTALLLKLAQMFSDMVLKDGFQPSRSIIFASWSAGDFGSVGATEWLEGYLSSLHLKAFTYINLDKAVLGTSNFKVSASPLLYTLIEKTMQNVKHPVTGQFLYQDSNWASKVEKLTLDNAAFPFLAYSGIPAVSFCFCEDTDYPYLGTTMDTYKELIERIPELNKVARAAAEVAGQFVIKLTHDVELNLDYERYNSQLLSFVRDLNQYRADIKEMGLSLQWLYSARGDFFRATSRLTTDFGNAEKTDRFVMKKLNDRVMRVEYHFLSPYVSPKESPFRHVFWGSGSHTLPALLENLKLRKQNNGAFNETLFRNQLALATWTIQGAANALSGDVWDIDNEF
# Assay: blocking ELISA: supernatant pre-mixed with 300 pM Hmm-hTFRC, hTFRC bound to immobilized human holo-Tf read
# Method: In the blocking assay, the anti-human Transferrin goat IgG polyclonal antibody (anti-hTf pAb) was passively absorbed at a concentration of 2 micrograms/mL in PBS on a 96-well microtiter plate overnight at 4° C. […] To the same plate, human holo-Tf was then added at a concentration of 1 micrograms/mL in PBS+0.5% BSA for 2 hours at room temperature. […] After a 1-hour incubation, the mixtures were transferred to the human holo-Tf microtiter plates. […] The plates were developed using TMB substrate solution according to the manufacturer's recommended procedure and absorbance at 450 nm was measured on a Victor™ Multilabel Plate Reader.
# The ability of the anti-TfR antibody to block human TFRC binding to human holo-Tf was evaluated using an ELISA-based blocking assay.
binder,measurement,value
B1,% Blocking,0%

# — US20240052051A1 (Regeneron, published 2024)
